Measured values from patent publication US20120094914A1 (KYUSHU UNIVERSITY NATIONAL UNIVERSITY, published 2012).

Biological target: T1, biotinylated HLA-G (monomer) refolded with human beta2 microglobulin and peptide … (human, biotinylated with BirA; site not stated)
T1 construct: also called wild-type HLA-G
Assay: SPR (BIAcore 2000), equilibrium response against LIR2 concentration, fitted binding isotherm; biotinylated HLA-G immobilised via streptavidin, BSA control cell subtracted
Method: Surface plasmon resonance experiment was conducted for HLA-G and LILRB2 (LIR2), using BIAcore 2000° (BIAcore AB, St Albans, England). First, streptavidin was covalently immobilized on a laboratory sensor chip CM5 (BIAcore AB), and the biotinylated HLA-G and the negative control BSA were immobilized via the streptavidin. Then, LILRB2 (LIR2) dissolved in the running buffer HBS-EP (10 mM HEPES, pH 7.5, 150 mM sodium chloride, 3.4 mM EDTA, 0.005% Surfactant P20) was flown at 10 μL/min. The binding response at each concentration was calculated by subtracting the measured response in a control flow cell from the response in a sample flow cell. Binding constant (Kd) was obtained by Scatchard analysis, or by the nonlinear curve fitting of standard Langmuir binding isotherm, using ORIGIN 5 (Microcal Software).

B1: LILRB2 (LIR2) (receptor, UniProt Q8N423 24-220, looked up)
chain: GTIPKPTLWAEPDSVITQGSPVTLSCQGSLEAQEYRLYREKKSASWITRIRPELVKNGQFHIPSITWEHTGRYGCQYYSRARWSELSDPLVLVMTGAYPKPTLSAQPSPVVTSGGRVTLQCESQVAFGGFILCKEGEDEHPQCLNSQPHARGSSRAIFSVGPVSPNRRWSHRCYGYDLNSPYVWSSPSDLLELLVPG
notes: domain: ILT4D1D2; also called leukocyte Ig-like receptor B2; ILT4
- Kd: 4.1 µM
